Patent publication US6548060 (dated 2003)

T1: ASK1 (apoptosis signal-regulating kinase), full-length, Q99683
T1 chain: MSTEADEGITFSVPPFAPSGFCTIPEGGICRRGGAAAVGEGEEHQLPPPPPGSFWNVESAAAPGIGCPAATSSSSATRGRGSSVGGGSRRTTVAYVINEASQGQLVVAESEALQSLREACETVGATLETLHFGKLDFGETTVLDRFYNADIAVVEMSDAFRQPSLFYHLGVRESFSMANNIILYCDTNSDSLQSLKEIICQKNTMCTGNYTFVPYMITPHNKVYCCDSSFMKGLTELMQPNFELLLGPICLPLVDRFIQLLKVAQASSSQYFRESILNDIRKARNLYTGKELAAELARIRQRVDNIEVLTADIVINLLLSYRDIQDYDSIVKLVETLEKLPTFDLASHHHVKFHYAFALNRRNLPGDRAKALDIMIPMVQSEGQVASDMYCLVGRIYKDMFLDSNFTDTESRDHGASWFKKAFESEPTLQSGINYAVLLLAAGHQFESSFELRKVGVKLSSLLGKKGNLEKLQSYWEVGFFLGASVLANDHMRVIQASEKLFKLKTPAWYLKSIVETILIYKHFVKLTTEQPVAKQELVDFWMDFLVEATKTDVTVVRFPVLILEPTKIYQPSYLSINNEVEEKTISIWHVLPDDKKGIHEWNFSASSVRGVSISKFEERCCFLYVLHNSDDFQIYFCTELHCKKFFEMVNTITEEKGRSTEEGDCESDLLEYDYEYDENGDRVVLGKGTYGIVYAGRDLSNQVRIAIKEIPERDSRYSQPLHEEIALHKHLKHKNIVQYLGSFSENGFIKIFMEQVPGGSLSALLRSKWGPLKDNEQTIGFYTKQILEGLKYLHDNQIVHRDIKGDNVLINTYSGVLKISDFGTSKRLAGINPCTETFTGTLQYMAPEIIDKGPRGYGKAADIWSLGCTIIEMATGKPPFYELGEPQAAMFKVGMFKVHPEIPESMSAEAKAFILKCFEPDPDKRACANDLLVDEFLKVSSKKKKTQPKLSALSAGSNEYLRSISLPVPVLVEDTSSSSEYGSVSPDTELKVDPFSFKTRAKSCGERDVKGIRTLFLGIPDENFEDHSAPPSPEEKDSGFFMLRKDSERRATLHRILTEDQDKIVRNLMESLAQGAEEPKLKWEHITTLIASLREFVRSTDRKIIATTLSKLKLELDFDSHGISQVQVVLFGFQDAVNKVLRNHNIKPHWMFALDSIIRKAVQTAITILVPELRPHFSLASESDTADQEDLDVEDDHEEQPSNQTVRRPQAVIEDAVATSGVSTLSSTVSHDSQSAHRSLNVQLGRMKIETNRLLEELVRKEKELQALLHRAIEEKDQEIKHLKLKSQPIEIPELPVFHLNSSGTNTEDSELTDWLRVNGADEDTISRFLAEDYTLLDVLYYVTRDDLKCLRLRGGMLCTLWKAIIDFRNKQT

B1: C-terminal 539 aa catalytic domain of human glutaminyl-tRNA synthetase (protein)
chain: NYKTPGYVVTPHTMNLLKQHLEITGGQVRTRFPPEPNGILHIGHAKAINFNFGYAKANNGICFLRFDDTNPEKEEAKFFTAICDMVAWLGYTPYKVTYASDYFDQLYAWAVELIRRGLAYVCHQRGEELKGHNTLPSPWRDRPMEESLLLFEAMRKGKFSEGEATLRMKLVMEDGKMDPVAYRVKYTPHHRTGDKWCIYPTYDYTHCLCDSIEHITHSLCTKEFQARRSSYFWLCNALDVYCPVQWEYGRLNLHYAVVSKRKILQLVATGAVRDWDDPRLFTLTALRRRGFPPEAINNFCARVGVTVAQTTMEPHLLEACVRDVLNDTAPRAMAVLESLRVIITNFPAAKSLDIQVPNFPADETKGFHQVPFAPIVFIERTDFKEEPEPGFKRLAWGQPVGLRHTGYVIELQHVVKGPSGCVESLEVTCRRADAGEKPKAFIHWVSQPLMCEVRLYERLFQHKNPEDPTEVPGGFLSDLNLASLHVVDAALVDCSVALAKPFDKFQFERLGYFSVDPDSHQGKLVFNRTVTLKEDPGKV
B2: human glutaminyl-tRNA synthetase, full-length (protein)
chain: MAALDSLSLFTSLGLSEQKARETLKNSALSAQLREAATQAQQTLGSTIDKATGILLYGLASRLRDTRRLSFLVSYIASKKIHTEPQLSAALEYVRSHPLDPIDTVDFERECGVGVIVTPEQIEEAVEAAINRHRPQLLVERYHFNMGLLMGEARAVLKWADGKMIKNEVDMQVLHLLGPKLEADLEKKFKVAKARLEETDRRTAKDVVENGETADQTLSLMEQLRGEALKFHKPGENYKTPGYVVTPHTMNLLKQHLEITGGQVRTRFPPEPNGILHIGHAKAINFNFGYAKANNGICFLRFDDTNPEKEEAKFFTAICDMVAWLGYTPYKVTYASDYFDQLYAWAVELIRRGLAYVCHQRGEELKGHNTLPSPWRDRPMEESLLLFEAMRKGKFSEGEATLRMKLVMEDGKMDPVAYRVKYTPHHRTGDKWCIYPTYDYTHCLCDSIEHITHSLCTKEFQARRSSYFWLCNALDVYCPVQWEYGRLNLHYAVVSKRKILQLVATGAVRDWDDPRLFTLTALRRRGFPPEAINNFCARVGVTVAQTTMEPHLLEACVRDVLNDTAPRAMAVLESLRVIITNFPAAKSLDIQVPNFPADETKGFHQVPFAPIVFIERTDFKEEPEPGFKRLAWGQPVGLRHTGYVIELQHVVKGPSGCVESLEVTCRRADAGEKPKAFIHWVSQPLMCEVRLYERLFQHKNPEDPTEVPGGFLSDLNLASLHVVDAALVDCSVALAKPFDKFQFERLGYFSVDPDSHQGKLVFNRTVTLKEDPGKV

Biological target: T1, ASK1 (apoptosis signal-regulating …)

Row | Protein | kinase activity of ASK1 (MBP phosphorylation, immunocomplex kinase assay) | ASK1 kinase activity enhanced by Daxx-CA (GST-SEK1 as substrate)
1 | B1 | The ASK1 activity was inhibited by the expression of QRS-F and -C but not of QRS -N | 
2 | B2 | The ASK1 activity was inhibited by the expression of QRS-F and -C but not of QRS -N | QRS inhibited the ASK1 activity enhanced by Daxx
